We go through two molecules from patent US20150033371A1, “HAIR FOLLICLE STEM CELLS AND METHODS OF USE SAME” (University of Southern California, priority 2011, published 2015).

For data set [1] the following is noted: DMSO; cited from earlier work.
The conditions of data set [2]: published reports; cited from earlier work.
Data set [3] concerns hair germ. The data set can be described thus: subcutaneous injection of WNT activator 2 recombinant protein in mice, hair germ activation and hair cycle. Format: in vivo. To be noted: for hair germ activation: mice (FIG. 12); for telogen to anagen transition: mice (FIG. 13). The text has this: To further investigate the effect of WNT activator 2 in hair germ activation, mice received subcutaneous injection of WNT activator 2 recombinant protein.

In the case of `c1cc(-c2cnn3cc(-c4ccc(OCCN5CCCCC5)cc4)cnc23)ccn1` [Dorsomorphin], the solubility entry in data set [1] was “soluble in DMSO”. The toxicity entry in data set [2] was “low toxicity”.

B1: WNT activator 2 recombinant protein: recombinant Wnt7a protein (wingless-type MMTV integration site family, member 7A), called WNT activator 2 (protein, UniProt O00755 32-349, looked up)
Protein Wnt-7a: LGASIICNKIPGLAPRQRAICQSRPDAIIVIGEGSQMGLDECQFQFRNGRWNCSALGERTVFGKELKVGSREAAFTYAIIAAGVAHAITAACTQGNLSDCGCDKEKQGQYHRDEGWKWGGCSADIRYGIGFAKVFVDAREIKQNARTLMNLHNNEAGRKILEENMKLECKCHGVSGSCTTKTCWTTLPQFRELGYVLKDKYNEAVHVEPVRASRNKRPTFLKIKKPLSYRKPMDTDLVYIEKSPNYCEEDPVTGSVGTQGRACNKTAPQASGCDLMCCGRGYNTHQYARVWQCNCKFHWCCYVKCNTCSERTEMYTCK
With B1, in data set [3], the hair germ activation entry is recorded as “induces precocious hair germ activation” and the “telogen to anagen transition” value is recorded as “promotes precocious telogen to anagen transition”. Also, in data set [3] (listed as WNT activator 2), the hair germ activation entry is “induced precocious hair germ activation” and the “telogen to anagen transition” value was “promoted precocious telogen to anagen transition”.
